Here are results for one protein from article PMC10525234, “Antifungal Action of Arabidopsis thaliana TCP21 via Induction of Oxidative Stress and Apoptosis” (Antioxidants, 2023).

This data set concerns the molecule itself. Description: negative-stain transmission electron microscopy; purified AtTCP21 on a glow-discharged carbon-coated copper grid, negatively stained with 2% uranyl acetate; protein dialyzed against 25 mM HEPES pH 7.2, 150 mM NaCl.

B1: Arabidopsis thaliana TCP21 (natural protein)
chain: not shown
notes: full-length protein expressed from cDNA; also called AtTCP21; recombinant AtTCP21; source: E. coli BL21(DE3), pET28a, purified (Ni-NTA, SEC)
With B1, the binding result is listed as “binds”.
